Drawing on publication PMC8115288, this text covers % binding and ratio to parent for two substances.

One assay addresses GST-SAP18 (UniProt O00422). Briefly: pull-down; GST-INI1, GST-SAP18, GST-LEDGF or GST-Gemin2 as bait, His6-IN(WT) or His6-IN(W235E) as prey; bound protein quantified as fraction bound after normalising to the loading control.
For another assay, the target named is GST-Gemin2 (UniProt O14893). The assay can be described thus: GST-pull down, quantitation of bound protein. The note with it: parent: est. 1.0; read off a plot.
Chain of GST-Gemin2 (O14893 whole entry): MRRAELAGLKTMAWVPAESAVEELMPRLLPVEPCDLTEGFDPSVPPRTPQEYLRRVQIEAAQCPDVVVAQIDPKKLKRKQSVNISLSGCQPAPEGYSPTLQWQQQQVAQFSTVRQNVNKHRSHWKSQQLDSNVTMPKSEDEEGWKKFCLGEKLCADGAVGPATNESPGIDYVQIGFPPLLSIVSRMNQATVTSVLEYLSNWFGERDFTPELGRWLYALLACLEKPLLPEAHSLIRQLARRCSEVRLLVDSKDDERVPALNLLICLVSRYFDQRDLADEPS
The target in another assay is GST-LEDGF (UniProt O75475). The assay can be described thus: GST-pull down, quantitation of bound protein. The note with it: parent: est. 1.0; read off a plot.
Chain of GST-LEDGF (O75475 whole entry): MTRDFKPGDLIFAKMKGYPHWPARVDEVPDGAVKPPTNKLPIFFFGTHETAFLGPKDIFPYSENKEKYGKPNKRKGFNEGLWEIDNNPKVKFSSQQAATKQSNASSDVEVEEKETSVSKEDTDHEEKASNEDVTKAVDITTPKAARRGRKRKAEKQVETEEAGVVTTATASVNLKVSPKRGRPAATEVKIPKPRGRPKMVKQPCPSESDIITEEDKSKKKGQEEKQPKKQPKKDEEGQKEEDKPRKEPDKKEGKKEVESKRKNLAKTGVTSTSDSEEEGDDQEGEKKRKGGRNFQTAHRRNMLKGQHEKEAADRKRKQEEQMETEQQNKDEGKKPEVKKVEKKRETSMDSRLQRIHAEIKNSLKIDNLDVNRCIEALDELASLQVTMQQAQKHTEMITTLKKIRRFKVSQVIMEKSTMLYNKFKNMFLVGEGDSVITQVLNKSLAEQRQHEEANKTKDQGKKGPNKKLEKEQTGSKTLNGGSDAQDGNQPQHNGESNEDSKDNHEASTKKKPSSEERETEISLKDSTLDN

Chain of GST-SAP18 (O00422 whole entry): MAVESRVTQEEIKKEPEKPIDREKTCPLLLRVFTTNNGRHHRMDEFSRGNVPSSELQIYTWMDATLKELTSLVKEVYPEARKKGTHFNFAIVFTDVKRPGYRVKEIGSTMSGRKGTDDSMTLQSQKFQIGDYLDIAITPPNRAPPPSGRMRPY

On to His6-IN(W235E) (enzyme), for which the % binding with GST-SAP18 is 20%.

Take His6-IN(WT) W235E: the results for the ratio to parent in the assay with GST-Gemin2 and with GST-LEDGF were 0.8 and 0.82, respectively.
